# From the DeepSol protein solubility set
# Assay: soluble on expression in E. coli; label from the status in PepcDB or PDB records
row,Sequence,soluble on expression in E. coli
1,MGSDKIHHHHHHMKFPERFAHLPPYAFPRLRALLDHHAPGGDVVQLTIGEPKHEFPAWVTDVIVENASAFNNYPQNEGSDALRGAMADWAAQRYGVTLDPATRVMALNGTREGLYNAAMALCPEEKNGQRPVVLIPNPFYQVYMIAAISVAAEPVFVPATDETGHLPDYASLPEEVLNRTAIAYICSPANPQGAVASREYWQQLFALAEKYDFKVFADECYSEIYRDTAPVGALTVADEMGLDPERVVLFNSLSKRSNLPGLRCGLLAGGPETLVQVKKLRAYSGAPIPGPLQAAAAKVWADEVHVAENRALYQEKYRIADEVFAGLNGYMSPEAGFFLWLPVEDGEAATLKLWQETGVRVLPGAFLAQGKGAENPGHGYIRVALVASEEQTRASLQLLRDCLY,not soluble
2,MAHHHHHHMDAERGCRQCGQQGHSASQCRIKKYLCRDCGGMHDTRDCIFSHVGEDWYEFYDPKTRHVYYANSDESQIQWNPPTHELDTIYWYCSRCQVMISAKFRECLLCHSIRPESKQQETLTTDSNSDSSSSSSTSSSSSSTDTSCISRSSSSSGSASSSDSSSNDDDKRSAAGRLRDRAP,soluble
3,MLKMIAFDFDGTLAPTIPMVIDVFRRSVAPYVEHELTKQAIVQTFGLNEVGMVKAVAGQRWPVALAAFYQEYARAHLRVSAPYPGIVTLLELLQQQGVALALITGKAAKSCQISLDVTGLTSYFPTRLYGSECQPNKADNLRQLMRTKSLDAAELFYVGDTRSDFEAADTAGVQCLTAAWDPNQPIVEAGDQIVFTSVEQLWAYLQRRLGHGLVRPMSHKPR,not soluble
4,QEGYPFPSFHLRGTHPYRSILVSANTEALSPLLASAMDLARIFGSEVYVLFVSRVEAFMPPEEKELLENLKVLVERARKTSGLEVHLIRKEGNPVRETLRLLKGKFNLLALGYTPGRRTAFFRPYVPQLLAQASPVSTLLVPEVNLER,not soluble
5,GHQLPIWKQDEKSLTENDYYSFYKNTFKAYDDPLAYVHFNVEGQISFNSILYIPGSLPWELSKNMFDEESRGIRLYVKRVFINDKFSESIPRWLTFLRGIVDSENLPLNVGREILQKSKMLSIINKRIVLKSISMMKGLKETGGDKWTKFLNTFGKYLKIGVVEDKENQEEIASLVEFYSINSGDKKTDLDSYIENMKEDQKCIYYISGENKKTAQNSPSLEKLKALNYDVLFSLEPIDEFCLSSLTVNKYKGYEVLDVNKAD,soluble
6,MAHHHHHHMLMVPMKFARAHLRRLHALQPTPTFAIECSLPFLCAWRAMKHRSLAPDDPFGERSTFSDPSDGLFAAWSGVDFNAFADAASSDEVRTAHFGPEWSRFATVGRLSVKIMREQGTPGVASAVSSKGGNKVLPRPPTAEELHSRELQARRKALEGNYATYEQYVMKELGIEDGGNEDEHMEEEMDDATEVANASEESMPLPHFMVERGEGQAHANDTNKQESTNGKPLLRTREGLQVPEPLMQMILDALGEPHGDRHLPRSDPLHWNTEVVILWVRKLEAARFALVSAAGTGEASLLEAPLMEDPSMHEAFRMARTNGKFLLHHTVPNTMFQVMRRWYLRRQEIALTFMKERQEMKNTTSISKDDVNDATFKSALEAGRAKLDELAAKVTPILIQETISQCYPYCH,not soluble
7,MKTLVVALGGNALLQRGEALTAENQYRNIASAVPALARLARSYRLAIVHGNGPQVGLLALQNLAWKEVEPYPLDVLVAESQGMIGYMLAQSLSAQPQMPPVTTVLTRIEVSPDDPAFLQPEKFIGPVYQPEEQEALEAAYGWQMKRDGKYLRRVVASPQPRKILDSEAIELLLKEGHVVICSGGGGVPVTDDGAGSEAVIDKDLAAALLAEQINADGLVILTDADAVYENWGTPQQRAIRHATPDELAPFAKADGSMGPNVTAVSGYVRSRGKPAWIGALSRIEETLAGEAGTCISL,not soluble
8,MDITELLAFSAKQGASDLHLSAGLPPMIRVDGDVRRINLPPLEHKQVHALIYDIMNDKQRKDFEEFLETDFSFEVPGVARFRVNAFNQNRGAGAVFRTIPSKVLTMEELGMGEVFKRVSDVPRGLVLVTGPTGSGKSTTLAAMLDYLNNTKYHHILTIEDPIEFVHESKKCLVNQREVHRDTLGFSEALRSALREDPDIILVGEMRDLETIRLALTAAETGHLVFGTLHTTSAAKTIDRVVDVFPAEEKAMVRSMLSESLQSVISQTLIKKIGGGRVAAHEIMIGTPAIRNLIREDKVAQMYSAIQTGGSLGMQTLDMCLKGLVAKGLISRENAREKAKIPENFGAAALEHHHHHH,soluble
9,MIQNDYSIYQYHVEFEPTVDSKATRENMLRQPSVTVEIGKHFVFDGMILYLKEEWDQNQMIEVQHPNDNSLICIRFKKTNRFLVDDPQTINIFNTIIRRSFDAMKLTQIGRNYFDWDNSRALRKELRSCQNNRQRVQEKMNEVYGGSTIITRYNNKLHRFTRLDNEITPLSKFQKDGEQIILKEYFKNQYDIDITDDEQFIIISEGKPKQPGEPPQVNYIVPELCFPTGLTDEMRKDFKMMKEIAKHTRMSPQQRLDETRKLITKLSQNQTMMECFQYWGISLGQDLANVQARVLKSEPLQGKRQYEGKQAEWARGVKECGIYRGSNMTNWIVIGPGSGNSGLLAQKFIAEARNLGRTLQVQLGEPMCVKINGISPNDYLEGLKAAIKSVDGEEIHMLVVMLADDNKTRYDSLKKYLCVECPIPNQCVNLRTLAGKSKDGGENKNLGSIVLKIVLQMICKTGGALWKVNIPLKSTMIVGYDLYHDSTLKGKTVGACVSTTSNDFTQFYSQTRPHENPTQLGNNLTHFVRKSLKQYYDNNDKTLPSRLILYRDGAGDGQIPYIKNTEVKLVRDACDAVTDKAAELSNKVQEKIKLAFIIVTKRVNMRILKQGSSSKSAINPQPGTVVDTTVTRPERMDFYLVPQFVNQGTVTPVSYNIIHDDTGLGPDKHQQLAFKLCHLYYNWQGTVRVPAPCQYAHKLAFLTAQSLHDDANGYLRDKLFFL,not soluble
10,MLGRTDISTFPRLKLGFWGEVTLTFPAVCDAAEIVLPANWADMSVAANNDNAAINTNNVNFLHISSYIRILVTTIPLRCGKTRDNPH,not soluble
11,MSLLIRELETNDLDNFPEIDDSFIVNARLMLSLSKVNRRIEYTVEDVPSYEKSYLQNDNEELVYNEYINKPNQIIYIALLHNQIIGFIVLKKNWNNYAYIEDITVDKKYRTLGVGKRLIAQAKQWAKEGNMPGIMLETQNNNVAACKFYEKCGFVIGGFDFLVYKGLNMTSDEVAIYWYLHFDS,not soluble
12,MGHHHHHHSHLQHETQELASKRVDIQNKRFYLDVKQNAKGRFLKIAEVGAGGNKSRLTLSMSVAVEFRDYLGDFIEHYAQLGPSQPPDLAQAQDEPRRALKSEFLVRENRKYYMDLKENQRGRFLRIRQTVNRGPGLGSTQGQTIALPAQGLIEFRDALAKLIDDYGVEEEPAELPEGTSLTVDNKRFFFDVGSNKYGVFMRVSEVKPTYRNSITVPYKVWAKFGHTFCKYSEEMKKIQEK,soluble
13,MNNKTEQGNDAVSGQPSIKGQPVLGKDDAPVTVVEFGDYKCPSCKVFNSDIFPKIQKDFIDKGDVKFSFVNVMFHGKGSRLAALASEEVWKEDPDSFWDFHEKLFEKQPDTEQEWVTPGLLGDLAKSTTKIKPETLKENLDKETFASQVEKDSDLNQKMNIQATPTIYVNDKVIKNFADYDEIKETIEKELKGKLEHHHHHH,soluble
14,MGHHHHHHSHMKFEAFKIVPVGYIRKEKNVFIEILPEFREGMEGLREGDWIKLILWFHKSDTPELRRILKVHPHGNPENPLTGVFATRSPFRPNPYTVKVHKIEGNRIYIDWIDAEDGTPVSDIKIFPERYDCPKENYQSTSRLKS,soluble
15,MGSDKIHHHHHHMNSPKNSLYEEKSGHYYNAVNPNLLKHIKKEWKEVLDIGCSSGALGAAIKENGTRVSGIEAFPEAAEQAKEKLDHVVLGDIETMDMPYEEEQFDCVIFGDVLEHLFDPWAVIEKVKPYIKQNGVILASIPNVSHISVLAPLLAGNWTYTEYGLLDKTHIRFFTFNEMLRMFLKAGYSISKVDRVYVDHKMYEPLIEELYGICKKYRLGSGFMAETVVFQYIIEAEKSQL,not soluble
16,MNNLIRLRDGVAEVCRDDPWQLLRELPDALPPGPLLLPLAAWLERRGEAGAAAPWLAPDDEVEALLPHFAELPLIAVDFPSFRDGRGYSLAYLLRVRLGWSGELRAVGDVLRDQLSHMRQCGFDAFAVREDKNVEDALKGLAGLSVLYGRSAIEPRPLFRRR,not soluble
17,MGSSHHHHHHSSGLVPRGSHMSELLATYLLTEPGADTEKKAEQIATGLTVGSWTDLPLVKQEQMQKHKGRVIKVEEREGTAASEKQAVITIAYPEINFSQDIPALLTTVFGKLSLDGKIKLIDLHFSEAFKRALPGPKFGVYGIRKLLGEFERPLLMSIFKGVIGRDLSDIKEQLRQQALGGVDLIKDDEIFFETGLAPFETRIAEGKQILKETYEQTGHKTLYAVNLTGRTADLKDKARRAAELGADALLFNVFAYGLDVMQGLAEDPEIPVPIMAHPAVSGAFTSSPFYGFSHALLLGKLNRYCGADFSLFPSPYGSVALPRADALAIHEECVREDAFNQTFAVPSAGIHPGMVPLLMRDFGIDHIINAGGGVHGHPNGAQGGGRAFRAIIDAVLEAQPIDEKAEQCKDLKLALDKWGKAEAV,soluble
18,MGSDKIHHHHHHMNRIQLSQLAVLATVAETSSFRKAAEELGIAPSAVSHAVSALEASLGVRLLARTTRSVAPTEEGRQLLQKLAPALADIGTALETLAENKSNPAGPLRITMPALAAEDLIVPRLGDFLGLYPDIQLELITNDQFEDIVEKGFDAGLRLGEHLETDMVAVKASGPISGTIIGAPSYFERHPLPVHPHDLMEHRCIRRRFSSGRIYRWELEKHGKQIAVDVPDVLTLADQRLIRLAALKGVGLAFVFDQRVDKDIREGRLIRVLEDWCPPFDGFYIYYPTRRQMRPALRAFVDFFRHRS,not soluble
19,GSHMRLSDYFPESSISVIHSAKDWQEAIDFSMVSLLDKNYISENYIQAIKDSTINNGPYYILAPGVAMPHARPECGALKTGMSLTLLEQGVYFPGNDEPIKLLIGLSAADADSHIGAIQALSELLCEEEILEQLLTASSEKQLADIISRG,soluble
20,MPDPQGGEIVYVGGTLLDLNRYELYYQFDFTAKYEITEEDTRQAEDVNALPDLSLLSIDVDYIDPGTGPDGDIEHHLEMRFPQN,not soluble
21,MELKKFELKTVELPILKPGTLRGKKEFRLLHISDLHMIPGQETKKAWVSALDSLSPDLVINTGDNLSDEKAVPDVLRALGPLMNRPGAFVFGTNDYWAPRPVNPFGYLFGKKREVSHIDLPWRAMRAAFIEHGWQDANQKRLEFQVGSVRLAISGVDDPHHDLDDYTEIAGAPNVDADLSIALLHAPEPRVLAQFEADGYQLSLSGHTHGGQLEHHHHHH,not soluble
22,MGHVLIEMMGIKKGDFVLDVGCGTGRQALNVAGIIGPAGKLTGIDPSSYRIELARKKFEGDSSGNVRFLVRQAENLQDIPDNSINHAYFCSSFHWVDDKKTALNEIFRVLRPGGKVGMTTLDRNSPNTMKALIDPILAKFGIERRHEWHRGMKKVTAPELHDLLSGAGFTSISIEPRAVPRKYNSPEEFLQHPEEKDSSRGILRDISNETLEKLRQEITEEFRKAQTPEDIGFGNITLFAIATKAQEGLEHHHHHH,soluble
